In patent US20140220004A1:

Target: human transient receptor potential cation channel, subfamily A, member 1 (hTRPA1) (human) (UniProt O75762)
Experiment: cell-based or functional assay

Chain of UniProt O75762 (O75762 whole entry): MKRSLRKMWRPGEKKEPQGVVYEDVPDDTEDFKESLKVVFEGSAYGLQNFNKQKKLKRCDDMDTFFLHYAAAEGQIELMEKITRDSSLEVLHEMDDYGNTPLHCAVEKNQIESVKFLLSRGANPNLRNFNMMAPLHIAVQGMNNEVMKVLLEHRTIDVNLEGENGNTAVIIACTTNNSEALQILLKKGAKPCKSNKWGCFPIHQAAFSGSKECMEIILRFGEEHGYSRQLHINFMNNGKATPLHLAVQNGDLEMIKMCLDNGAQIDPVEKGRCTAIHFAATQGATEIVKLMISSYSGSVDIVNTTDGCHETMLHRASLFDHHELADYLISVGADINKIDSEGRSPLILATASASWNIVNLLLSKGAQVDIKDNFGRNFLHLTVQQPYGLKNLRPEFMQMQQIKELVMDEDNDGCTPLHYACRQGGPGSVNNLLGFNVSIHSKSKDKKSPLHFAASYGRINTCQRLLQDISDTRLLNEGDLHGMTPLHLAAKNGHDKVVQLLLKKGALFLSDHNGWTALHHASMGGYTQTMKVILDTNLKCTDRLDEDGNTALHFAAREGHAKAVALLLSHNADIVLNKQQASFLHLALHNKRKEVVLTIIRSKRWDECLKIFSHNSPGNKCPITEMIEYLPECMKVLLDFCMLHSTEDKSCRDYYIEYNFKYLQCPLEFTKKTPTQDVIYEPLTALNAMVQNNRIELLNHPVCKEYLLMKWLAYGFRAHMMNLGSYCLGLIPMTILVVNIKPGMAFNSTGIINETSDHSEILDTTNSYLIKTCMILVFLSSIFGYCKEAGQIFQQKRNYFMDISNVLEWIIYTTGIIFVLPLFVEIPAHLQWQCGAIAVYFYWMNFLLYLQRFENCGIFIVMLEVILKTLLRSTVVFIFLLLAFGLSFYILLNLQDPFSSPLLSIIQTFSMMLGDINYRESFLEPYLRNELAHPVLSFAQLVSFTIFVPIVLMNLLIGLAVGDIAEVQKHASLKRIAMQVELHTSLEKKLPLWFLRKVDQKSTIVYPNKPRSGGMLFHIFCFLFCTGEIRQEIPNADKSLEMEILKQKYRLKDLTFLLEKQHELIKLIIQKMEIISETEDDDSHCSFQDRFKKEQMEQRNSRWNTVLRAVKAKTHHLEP

With “rabbit metallothionein 2 A isoform containing 7 zinc atoms (rabbit Zn7-MT2A) (Bestenbalt LLC, Estonia) (from UniProt P18055 1-62) (ligand)” the calcium flux in HEK cells transfected to express human TRPA1 (EC50) was 200 nM.
